Data on 3 molecules can be found in publication PMC6367345 (Scientific Reports, 2019).

Changes are numbered by the printed parent chain.

For one test, the target named is MEDI-579 Fab (human). The test can be described thus: SPR; BIAcore T100; antibody (MEDI-579 Fab) amine-coupled to a CM3 sensorchip at about 500 RU; serial dilution of PAI-1 between 6.25 nM and 25 pM in HBS-EP+ passed over the surface. Background: Surface plasmon resonance follows binding to a sensor surface in real time, without labels.
The target in test [1] is human plasminogen activator inhibitor-1 (PAI-1), active (native) form (Homo sapiens, UniProt P05121, glycosylated (SPR preparation)).
A further test concerns the target T1, rat PAI-1 (Rattus norvegicus, UniProt P20961).
T1 construct: source: bought: Molecular Innovations (SPR)
Put plainly: SPR; BIAcore T100; antibody (MEDI-579 Fab) amine-coupled to a CM3 sensorchip at about 500 RU; serial dilution of PAI-1 between 6.25 nM and 25 pM in HBS-EP+ passed over the surface. The settings on record: both partners purified.

T1 sequence (P20961 24-402): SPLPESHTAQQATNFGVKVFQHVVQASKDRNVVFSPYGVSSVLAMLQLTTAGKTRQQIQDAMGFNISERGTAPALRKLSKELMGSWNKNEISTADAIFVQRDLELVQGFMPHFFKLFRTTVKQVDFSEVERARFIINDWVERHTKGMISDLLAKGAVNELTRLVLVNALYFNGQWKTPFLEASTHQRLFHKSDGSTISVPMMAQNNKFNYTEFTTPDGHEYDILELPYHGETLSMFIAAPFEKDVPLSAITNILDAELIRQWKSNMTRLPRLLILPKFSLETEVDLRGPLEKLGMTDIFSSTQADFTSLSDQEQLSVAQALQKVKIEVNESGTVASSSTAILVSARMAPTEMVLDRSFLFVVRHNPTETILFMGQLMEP
MEDI-579 Fab (human), sequence (light, as listed by the source): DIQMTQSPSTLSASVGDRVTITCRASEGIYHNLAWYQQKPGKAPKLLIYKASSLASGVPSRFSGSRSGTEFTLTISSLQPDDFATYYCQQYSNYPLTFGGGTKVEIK
human plasminogen activator inhibitor-1 (PAI-1), active (native) form (Homo sapiens, UniProt P05121, glycosylated (SPR preparation)), sequence (P05121 24-402): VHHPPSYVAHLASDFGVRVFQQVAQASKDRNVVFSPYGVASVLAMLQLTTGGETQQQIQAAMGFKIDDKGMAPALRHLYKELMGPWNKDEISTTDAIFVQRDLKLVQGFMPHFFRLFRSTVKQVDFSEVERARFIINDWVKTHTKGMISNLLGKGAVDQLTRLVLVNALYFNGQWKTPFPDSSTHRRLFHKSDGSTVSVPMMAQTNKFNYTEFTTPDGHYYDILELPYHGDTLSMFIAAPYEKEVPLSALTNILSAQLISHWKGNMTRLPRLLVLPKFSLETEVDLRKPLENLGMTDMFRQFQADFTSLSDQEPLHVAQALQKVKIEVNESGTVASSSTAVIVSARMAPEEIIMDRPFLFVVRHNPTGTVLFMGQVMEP

The Kd is the constant that tells how readily two partners part at equilibrium. By koff is commonly meant the first-order rate constant of dissociation. High values mean a short-lived complex, low ones a long-lived complex. Usually kon stands for a measure of how fast the partners come together. Read a low kon as slow association. In the test with MEDI-579 Fab (human), “human plasminogen activator inhibitor-1 (PAI-1), active (native) form (from UniProt P05121 24-402) (natural protein)” registered a Kd of 6 pM, a koff of 4.18e-05 s⁻¹ and a kon of 7.02e+06 M⁻¹ s⁻¹.

B1: Parent (antibody, V domains shown)
VH: QVQLQQSGAEVKKPGSSVKVSCKASGGTFSSYAISWVRQAPGQGLEWMGGIIPIFDTANYAQKFQGRVTITADESTSTAYMELSSLRSEDTAVYYCAREKRQWLEGHFDYWGRGTLVTVSS
VL: DIQMTQSPSFLSASIGDRVTITCRASEGIYHWLAWYQQKPGKAPKLLIYKASSLASGAPSRFSGSGSGTDFTLTISSLQPDDFATYYCQQYSNYPLTFGGGTKLEIK
As to B1, the binding result in test [1] is “binds”.

B2: MEDI-579 Fab (Fab, V domains shown)
VH: B1 VH with Q5V, I54T, D56G, K100R
VL: B1 VL with F10T, I15V, W32N, A58V, G66R, D70E, L104V
notes: heavy chain of the Fab; closest germline IGHV1-69*12; light chain of the Fab; closest germline IGKV1-5*03; The Fab for crystallisation was made by papain digestion of the IgG1
Turning to B2, in the test with rat PAI-1, the Kd was 0.105 nM, the koff was 0.000797 s⁻¹ and the kon was found to be 7.64e+06 M⁻¹ s⁻¹.
